Measured values as given in US20240376171A1 (Hoffmann-La Roche, published 2024).

What was measured:
[1] = biological target: T1, PD1 on activated human CD4 and CD8 T cells (human, UniProt Q15116 25-288); test: flow cytometry, CD3/CD28-activated human PBMCs gated on CD3+CD4+ T cells, FITC anti-human Fc secondary antibody; no Matriptase digestion described
T1 construct: whole, on cells; Endogenous PD1 on CD3/CD28-stimulated T cells; also called human PD1; PD1 receptor
Protocol: (§1) PBMCs were bought from Biomex from a healthy donor (Lot 5000899PB). The PBMCs were stimulated for 3 days with CD3 and CD28 to induce upregulation of PD1 on T cells. Therefore, PBMCs were seeded in medium (RPMI1640, 10% FCS, 2 mM Glutamine) into cell culture flasks that were coated for 1 h at 37° C. with 1 μg/ml CD3 (clone OKT3, 302914, BioLegend). CD28 was added in solution to the PBMCs at a concentration of 1 μg/ml (clone CD28.2, 302914, BioLegend). After three days, PBMCs were harvested and transferred into a 96 well round bottom plate (200′000 cells per well). The cells were washed with FACS buffer (PBS, 2% FBS, 5 mM EDTA, 0.025% NaN3) and stained with 30 μl of corresponding TA PD1-IL2v constructs in FACS buffer for 30 min at 4° C. The cells were washed twice with FACS buffer to remove unbound molecules. Then 30 μl of the diluted FITC anti-mouse Fc specific secondary antibody (1:50 dilution, 115-096-071, Jackson ImmunoResearch) or for the human constructs the diluted FITC anti-human Fc specific secondary antibody (1:50 dilution, 115-096-098, Jackson ImmunoResearch) was added to the cells. After 30 min incubation at 4° C. the cells were washed twice with FACS buffer. To detect T cells, PBMCs were stained with 30 μl of a mixture of CD3 PE/Cyanine7 (clone UCHT1, 300420, BioLegend), CD4 PE (clone RPA-T4, 300508, BioLegend) and CD8 APC (clone SK1, 344722, BioLegend) for 30 min at 4° C. The unbound antibodies were removed by washing twice with FACS buffer. Finally the cells were resuspended in 150 μl FACs buffer and measured using a BD Fortessa gating on CD3+CD4+ cells (CD4 T cells) and CD3+CD8+ cells (CD8 T cells).

[2] = biological target: T1, PD1 on activated human CD4 and CD8 T …; test: flow cytometry, CD3/CD28-activated human PBMCs gated on CD3+CD8+ T cells, FITC anti-human Fc secondary antibody; no Matriptase digestion described
Protocol: as §1

[3] = biological target: T1, PD1 on activated human CD4 and CD8 T …; test: flow cytometry, CD3/CD28-activated human PBMCs gated on CD3+CD4+ T cells, PE anti-human Fc secondary antibody; TA constructs pre-incubated with Matriptase, unmasked controls not
Protocol: (§2) Three formats of TA PD1-IL2v molecules and respective controls were assessed for their capacity to bind to activated PD1 positive CD8 T cells and CD4 T cells within PBMCs in comparison to the respective unmasked molecules.
(§3) PBMCs were purchased from Biomex from a healthy donor (Lot 5000729PB). The PBMCs were stimulated for three days with CD3 and CD28 to induce upregulation of PD1 on T cells. Therefore, PBMCs were seeded in medium (RPMI1640, 10% FCS, 2 mM Glutamine) into cell culture flasks that were coated for 1 hour at 37° C. with 1 μg/ml CD3 (clone OKT3, 302914, BioLegend). CD28 was added in solution to the PBMCs at a concentration of 1 μg/ml (clone CD28.2, 302914, BioLegend). After three days, PBMCs were harvested and transferred into a 96 well round bottom plate (200′000 cells per well). The cells were washed with FACS buffer (PBS, 2% FBS, 5 mM EDTA, 0.025% NaN3) and stained with 30 μl of corresponding TA PD1-IL2v constructs in FACS buffer for 30 min at 4° C. Prior to the staining, 20 μg of the TA PD1-IL2v constructs were digested with 4 μl Matriptase (Enzo ˜2.5 U/μl, ALX-201-246-U25, Lot 12152015, or without Matriptase for the unmasked controls) for 2 hours at 37° C. in 40 μl Matriptase buffer (50 mM Tris, 50 mM NaCl, 0.01% Tween 20, pH 9.0). After the staining, the cells were washed twice with FACS buffer to remove unbound molecules. Then 30 μl of the diluted PE anti-human Fc specific secondary antibody (1:50 dilution, 109-116-170, Jackson ImmunoResearch) was added to the cells. After 30 min incubation at 4° C. the cells were washed twice with FACS buffer. To detect T cells, PBMCs were stained with 30 μl of a mixture of CD3 PE/Cyanine7 (clone UCHT1, 300420, BioLegend), CD4 FITC (clone RPA-T4, 300528, BioLegend) and CD8 APC/Cyanine7 (clone HIT8a, 300926, BioLegend) for 30 min at 4° C. The unbound antibodies were removed by washing twice with FACS buffer. Finally the cells resuspended in 150 μl FACS buffer and measured using a BD Fortessa gating on CD3+CD4+ cells (CD4 T cells) and CD3+CD8+ cells (CD8 T cells).

[4] = biological target: T1, PD1 on activated human CD4 and CD8 T …; test: flow cytometry, CD3/CD28-activated human PBMCs gated on CD3+CD8+ T cells, PE anti-human Fc secondary antibody; TA constructs pre-incubated with Matriptase, unmasked controls not
Protocol: as §2, §3

[5] = biological target: T1, PD1 on activated human CD4 and CD8 T …; test: flow cytometry, CD3/CD28-activated human PBMCs gated on CD3+CD4+ T cells, FITC anti-mouse Fc secondary antibody; no Matriptase digestion described
Protocol: as §1, with “To detect T cells, PBMCs were stained with 30 μl of a mixture of CD3 PE/Cyanine7 (clone UCHT1, 300420, BioLegend), CD4 PE (clone RPA-T4, 300508, BioLegend) and CD8 APC (clone SK1, 344722, BioLegend) for 30 min at 4° C. The unbound antibodies were removed by washing twice with FACS buffer.” left out

[6] = biological target: T1, PD1 on activated human CD4 and CD8 T …; test: flow cytometry, CD3/CD28-activated human PBMCs gated on CD3+CD8+ T cells, FITC anti-mouse Fc secondary antibody; no Matriptase digestion described
Protocol: as §1, with “To detect T cells, PBMCs were stained with 30 μl of a mixture of CD3 PE/Cyanine7 (clone UCHT1, 300420, BioLegend), CD4 PE (clone RPA-T4, 300508, BioLegend) and CD8 APC (clone SK1, 344722, BioLegend) for 30 min at 4° C. The unbound antibodies were removed by washing twice with FACS buffer.” left out

T1 sequence (Q15116 25-288): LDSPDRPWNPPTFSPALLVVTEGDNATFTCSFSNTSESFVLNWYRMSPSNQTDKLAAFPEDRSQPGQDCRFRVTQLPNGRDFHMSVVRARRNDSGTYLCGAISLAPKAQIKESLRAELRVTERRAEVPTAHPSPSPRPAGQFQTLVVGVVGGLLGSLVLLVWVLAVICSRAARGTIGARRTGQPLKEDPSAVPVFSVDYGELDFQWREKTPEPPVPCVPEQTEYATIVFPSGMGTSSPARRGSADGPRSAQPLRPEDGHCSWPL

B1: human PD1-IL2v, unmasked, in line (antibody, human IgG1, kappa, L234A L235A)
light: DIVMTQSPDSLAVSLGERATINCKASESVDTSDNSFIHWYQQKPGQSPKLLIYRSSTLESGVPDRFSGSGSGTDFTLTISSLQAEDVAVYYCQQNYDVPWTFGQGTKVEIKRTVAAPSVFIFPPSDEQLKSGTASVVCLLNNFYPREAKVQWKVDNALQSGNSQESVTEQDSKDSTYSLSSTLTLSKADYEKHKVYACEVTHQGLSSPVTKSFNRGEC
heavy 1: EVQLLESGGGLVQPGGSLRLSCAASGFSFSSYTMSWVRQAPGKGLEWVATISGGGRDIYYPDSVKGRFTISRDNSKNTLYLQMNSLRAEDTAVYYCVLLTGRVYFALDSWGQGTLVTVSSASTKGPSVFPLAPSSKSTSGGTAALGCLVKDYFPEPVTVSWNSGALTSGVHTFPAVLQSSGLYSLSSVVTVPSSSLGTQTYICNVNHKPSNTKVDKKVEPKSCDKTHTCPPCPAPEAAGGPSVFLFPPKPKDTLMISRTPEVTCVVVDVSHEDPEVKFNWYVDGVEVHNAKTKPREEQYNSTYRVVSVLTVLHQDWLNGKEYKCKVSNKALGAPIEKTISKAKGQPREPQVCTLPPSRDELTKNQVSLSCAVKGFYPSDIAVEWESNGQPENNYKTTPPVLDSDGSFFLVSKLTVDKSRWQQGNVFSCSVMHEALHNHYTQKSLSLSPG
heavy 2: not shown
notes: Bivalent human PD1-targeted human IgG PG LALA with IL2v fused to the C-terminus of the Fc knob chain (non-masked control); also called P1AA7146; P1AA7146-006
[1]
  EC50 (read off the curve): ~2 nM
[2]
  EC50 (read off the curve): ~2 nM
[3]
  EC50 (read off the curve): ~0.7 nM
[4]
  EC50 (read off the curve): ~0.8 nM

B2: murine TA PD1-IL2v, MT204, 2xPQARK, in line (antibody, mouse IgG1, kappa)
light: KIVLTQSPASLPVSLGQRATISCRASESVDTSDNSFIHWYQQRPGQSPKLLIYRSSTLESGVPARFSGSGSRTDFTLTIDPVEADDVATYYCQQNYDVPWTFGGGTKLEIKRADAAPTVSIFPPSSEQLTSGGASVVCFLNNFYPKDINVKWKIDGSERQNGVLNSWTDQDSKDSTYSMSSTLTLTKDEYERHNSYTCEATHKTSTSPIVKSFNRNEC
heavy 1: EVILVESGGGLVKPGGSLKLSCAASGFSFSSYTMSWVRQTPEKRLDWVATISGGGRDIYYPDSVKGRFTISRDNAKNTLYLEMSSLMSEDTALYYCVLLTGRVYFALDSWGQGTSVTVSSAKTTPPSVYPLAPGSAAQTNSMVTLGCLVKGYFPEPVTVTWNSGSLSSGVHTFPAVLQSDLYTLSSSVTVPSSTWPSQTVTCNVAHPASSTKVDKKIVPRDCGCKPCICTVPEVSSVFIFPPKPKDVLTITLTPKVTCVVVAISKDDPEVQFSWFVDDVEVHTAQTKPREEQINSTFRSVSELPIMHQDWLNGKEFKCRVNSAAFGAPIEKTISKTKGRPKAPQVYTIPPPKKQMAKDKVSLTCMITNFFPEDITVEWQWNGQPAENYKNTQPIMKTDGSYFVYSKLNVQKSNWEAGNTFTCSVLHEGLHNHHTEKSLSHSPG
heavy 2: EVILVESGGGLVKPGGSLKLSCAASGFSFSSYTMSWVRQTPEKRLDWVATISGGGRDIYYPDSVKGRFTISRDNAKNTLYLEMSSLMSEDTALYYCVLLTGRVYFALDSWGQGTSVTVSSAKTTPPSVYPLAPGSAAQTNSMVTLGCLVKGYFPEPVTVTWNSGSLSSGVHTFPAVLQSDLYTLSSSVTVPSSTWPSQTVTCNVAHPASSTKVDKKIVPRDCGCKPCICTVPEVSSVFIFPPKPKDVLTITLTPKVTCVVVAISKDDPEVQFSWFVDDVEVHTAQTKPREEQINSTFRSVSELPIMHQDWLNGKEFKCRVNSAAFGAPIEKTISKTKGRPKAPQVYTIPPPKEQMAKDKVSLTCMITNFFPEDITVEWQWNGQPAENYDNTQPIMDTDGSYFVYSDLNVQKSNWEAGNTFTCSVLHEGLHNHHTEKSLSHSPGGGGGSGGGGSGGGGGAPASSSTKKTQLQLEHLLLDLQMILNGINNYKNPKLTRMLTAKFAMPKKATELKHLQCLEEELKPLEEVLNGAQSKNFHLRPRDLISNINVIVLELKGSETTFMCEYADETATIVEFLNRWITFAQSIISTLTGGGGSGGGGSPQARKGGGGSGGGGSGGGGSGGGGSGGGEVQLVESGGGLVQPGGSLRLSCAASGFTFSSYTLAWVRQAPGKGLEWVAAIDSSSYTYSPDTVRGRFTISRDNAKNSLYLQMNSLRAEDTAVYYCARDSNWDALDYWGQGTTVTVSSGGGGSGGPQARKGGGGSGGGDIQMTQSPSSLSASVGDRVTITCKASQNVGTNVGWYQQKPGKAPKALIYSASFRYSGVPSRFSGSGSGTDFTLTISSLQPEDFATYYCQQYYTYPYTFGGGTKVEIK
notes: Murine surrogate: bivalent human PD1-targeted murine IgG DA PG with masked human IL2v in-line on the C-terminus of the Fc DD- chain, two PQARK sites; also called P1AG9983; P1AG9983-001
[5]
  EC50 (read off the curve): ~2 nM
[6]
  EC50 (read off the curve): ~2 nM

B3: murine PD1-IL2v, unmasked, in line (antibody, mouse IgG1, kappa)
light: B2 light
heavy 1: B2 heavy 1
heavy 2: EVILVESGGGLVKPGGSLKLSCAASGFSFSSYTMSWVRQTPEKRLDWVATISGGGRDIYYPDSVKGRFTISRDNAKNTLYLEMSSLMSEDTALYYCVLLTGRVYFALDSWGQGTSVTVSSAKTTPPSVYPLAPGSAAQTNSMVTLGCLVKGYFPEPVTVTWNSGSLSSGVHTFPAVLQSDLYTLSSSVTVPSSTWPSQTVTCNVAHPASSTKVDKKIVPRDCGCKPCICTVPEVSSVFIFPPKPKDVLTITLTPKVTCVVVAISKDDPEVQFSWFVDDVEVHTAQTKPREEQINSTFRSVSELPIMHQDWLNGKEFKCRVNSAAFGAPIEKTISKTKGRPKAPQVYTIPPPKEQMAKDKVSLTCMITNFFPEDITVEWQWNGQPAENYDNTQPIMDTDGSYFVYSDLNVQKSNWEAGNTFTCSVLHEGLHNHHTEKSLSHSPGGGGGSGGGGSGGGGGAPASSSTKKTQLQLEHLLLDLQMILNGINNYKNPKLTRMLTAKFAMPKKATELKHLQCLEEELKPLEEVLNGAQSKNFHLRPRDLISNINVIVLELKGSETTFMCEYADETATIVEFLNRWITFAQSIISTLT
notes: Murine surrogate: bivalent human PD1-targeted murine IgG DA PG with IL2v fused to the C-terminus of the Fc DD- chain (non-masked control); also called P1AG7552; P1AG7552-006
[5]
  EC50 (read off the curve): ~2 nM
[6]
  EC50 (read off the curve): ~2 nM
